Laboratory results taken from US20250109209A1 (ABSCI, published 2025).
Positions count from the first letter of the chain named.

T1: human TL1A (human, UniProt O95150 72-251)
T1 construct: Antigen in SPR and ELISA; Also used here for places that print only 'TL1A' and for endogenous TL1A in human whole blood; also called TNFSF15
T1 sequence (looked up): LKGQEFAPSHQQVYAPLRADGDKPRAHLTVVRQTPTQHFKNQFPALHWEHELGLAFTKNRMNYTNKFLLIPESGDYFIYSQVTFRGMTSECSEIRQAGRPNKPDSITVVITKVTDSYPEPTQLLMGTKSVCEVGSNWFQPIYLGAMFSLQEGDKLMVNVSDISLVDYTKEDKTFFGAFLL

T2: Cyno TL1A (cyno, UniProt G7PRK8 72-251)
T2 sequence: T1 sequence (looked up) with F39L, I78V

T3: mouse TL1A (mouse, UniProt Q5UBV8 76-252, limits assumed)
T3 sequence (looked up): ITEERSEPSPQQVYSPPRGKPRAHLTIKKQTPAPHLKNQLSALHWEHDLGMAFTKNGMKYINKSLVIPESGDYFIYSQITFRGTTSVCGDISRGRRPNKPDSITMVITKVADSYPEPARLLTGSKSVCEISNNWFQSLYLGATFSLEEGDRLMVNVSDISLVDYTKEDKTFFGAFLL

B1: Heron2B-Toci (Fab, V domains shown)
VH: QVQLQESGPGLVRPSQTLSLTCTVSGFDIQDTYMHWVRQRPGRGLEWMGRIDPASGHTKYNPSLKSRVTITRDTSKNQVSLRLSSVTAADTAVYYCARSGGLPDVWGQGSLVTVSS
VL: DIQMTQSPSSLSASVGDRVTITCRASSSVSYMYWYQQKPGKAPKLLIYATSNLASGVPSRFSGSGSGTDFTFTISSLQPEDIATYYCQQWEGNPRTFGQGTKVEIK
notes: also called Heron2B-toci parent
B2: Antibody 13 (mAb format) (antibody, human IgG1, kappa, N297A)
heavy: QVQLQESGPGLVRPSQTLSLTCTVSGFDYQDTYMHWVRQRPGRGLEWMGRIDPASGHTKYNPSLKSRVTITRDTSKNQVSLRLSSVTAADTAVYYCAVSGGMPDVWGQGSLVTVSSASTKGPSVFPLAPSSKSTSGGTAALGCLVKDYFPEPVTVSWNSGALTSGVHTFPAVLQSSGLYSLSSVVTVPSSSLGTQTYICNVNHKPSNTKVDKKVEPKSCDKTHTCPPCPAPELLGGPSVFLFPPKPKDTLMISRTPEVTCVVVDVSHEDPEVKFNWYVDGVEVHNAKTKPREEQYASTYRVVSVLTVLHQDWLNGKEYKCKVSNKALPAPIEKTISKAKGQPREPQVYTLPPSRDELTKNQVSLTCLVKGFYPSDIAVEWESNGQPENNYKTTPPVLDSDGSFFLYSKLTVDKSRWQQGNVFSCSVLHEALHSHYTQKSLSLSPGK
light: DIQMTQSPSSLSASVGDRVTITCRASQGVEYMYWYQQKPGKAPKLLIYATSNLASGVPSRFSGSGSGTDFTFTISSLQPEDIATYYCQQWEGNPRTFGQGTKVEIKRTVAAPSVFIFPPSDEQLKSGTASVVCLLNNFYPREAKVQWKVDNALQSGNSQESVTEQDSKDSTYSLSSTLTLSKADYEKHKVYACEVTHQGLSSPVTKSFNRGEC
notes: also called high priority lead mAb
B3: Antibody 3 (mAb format) (antibody, human IgG1, kappa, N297A)
heavy: B2 heavy with Y29I, D52E, S55G, A97V, V98R, M102L, V105A
light: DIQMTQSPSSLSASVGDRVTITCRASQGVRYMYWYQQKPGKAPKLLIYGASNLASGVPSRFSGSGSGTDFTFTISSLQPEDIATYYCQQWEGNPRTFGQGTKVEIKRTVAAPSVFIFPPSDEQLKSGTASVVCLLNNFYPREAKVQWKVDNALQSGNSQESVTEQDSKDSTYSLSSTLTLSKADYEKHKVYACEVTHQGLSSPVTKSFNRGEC
notes: as for B2
B4: RVT-3101 (antibody, V domains shown)
VH: QVQLVQSGAEVKKPGASVKVSCKASGYDFTYYGISWVRQAPGQGLEWMGWISTYNGNTHYARMLQGRVTMTTDTSTRTAYMELRSLRSDDTAVYYCARENYYGSGAYRGGMDVWGQGTTVTVSS
VL: EIVLTQSPATLSLSPGERATLSCRASQSVSSYLAWYQQKPGQAPRLLIYDASNRATGIPARFSGSGSGTDFTLTISSLEPEDFAVYYCQQRSNWPWTFGQGTKVEIK
B5: TEV-48574 (antibody, V domains shown)
VH: QVQLVQSGAEVKKPGASVKVSCKASGYTFTSYDINWVRQAPGQGLEWMGWLNPNSGYTGYAQKFQGRVTMTADRSTSTAYMELSSLRSEDTAVYYCAREVPETAAFEYWGQGTLVTVSS
VL: QSVLTQPPSVSGAPGQRVTISCTSSSSDIGAGLGVHWYQQLPGTAPKLLIEGYYNRPSGVPDRFSGSKSGTSASLTITGLLPEDEGDYYCQSWDGTLSALFGGGTKLTVLR

Assays:
[1] = target: T1, human TL1A; assay: SPR, affinity capture of Fab, average
[2] = target: T1, human TL1A; assay: SPR, mAb format, average
[3] = target: T1, human TL1A; assay: SPR, mAb format, average; remark: listed apart in the source
[4] = target: T4, FcRn (UniProt P55899 24-297; P61769 21-119); assay: SPR, mAb format, FcRn at pH 6.0, average
T4 construct: also called neonatal receptor
T4 sequence (P55899 24-297 limits assumed, chain 1 of 2): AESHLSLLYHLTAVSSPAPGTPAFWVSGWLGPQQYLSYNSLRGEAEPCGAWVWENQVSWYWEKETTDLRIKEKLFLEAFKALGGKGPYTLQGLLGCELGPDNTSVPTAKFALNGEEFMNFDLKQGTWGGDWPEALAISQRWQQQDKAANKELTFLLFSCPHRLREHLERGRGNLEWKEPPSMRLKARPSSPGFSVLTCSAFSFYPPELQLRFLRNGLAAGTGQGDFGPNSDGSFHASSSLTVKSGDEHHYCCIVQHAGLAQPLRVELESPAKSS
T4 sequence (P61769 21-119 limits assumed, chain 2 of 2): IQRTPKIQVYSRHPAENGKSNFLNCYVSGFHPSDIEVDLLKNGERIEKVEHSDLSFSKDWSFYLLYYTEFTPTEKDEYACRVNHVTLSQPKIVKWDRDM

[5] = target: T2, Cyno TL1A; assay: SPR, mAb format, average
[6] = target: T1, human TL1A; assay: SPR, mAb format, average; remark: listed apart in the source
[7] = target: T3, mouse TL1A; assay: SPR, mAb format
[8] = target: T4, FcRn; assay: SPR, representative sensorgram with FcRn, pH 6.0
[9] = target: T2, Cyno TL1A; assay: SPR, representative sensorgram with Cyno TL1A
[10] = target: T3, mouse TL1A; assay: SPR, mAb format, average
[11] = target: T1, human TL1A; assay: SPR, representative sensorgram with Human TL1A
[12] = target: T1, human TL1A; assay: selectivity ELISA: antibody pre-incubated with TL1A, inhibition of TL1A binding to plate-coated DR3
[13] = target: T1, human TL1A; assay: selectivity ELISA: antibody pre-incubated with TL1A, inhibition of TL1A binding to plate-coated DcR3

Binder | Kd [2] [nM] | Kd [3] [nM] | Kd [4] [nM] | Kd [5] [nM] | Kd [6] [nM] | IC50 [12] [µg/mL] | IC50 [13] [µg/mL] | also measured
B1 |  |  |  |  |  |  |  | Kd [1]: 5.71 nM
B2 | 0.385 | 0.385 | 18.8 | 0.154 | 0.385 |  |  | binding result [7]: no binding
B3 | 0.044 | 0.044 | 16 | 0.032 | 0.044 |  |  | Kd [8]: 14 nM; Kd [9]: < 0.031 nM; Kd [10]: 117 nM; Kd [11]: < 0.044 nM
B4 |  |  |  |  |  | 4.4 | 0.8 | 
B5 |  |  |  |  |  | 2.6 | 0.7 | 
